Experimental data as given in patent US9926369B2, “Methods for treating hepatocellular cancer by administering an anti-Ang-2 antibody” (Regeneron Pharmaceuticals, Inc., priority 2009, dated 2018).

T1: hAng-1-WT binding to hTie-2-mFc (Homo sapiens, UniProt Q15389)
T1 sequence (Q15389 20-498 limits assumed): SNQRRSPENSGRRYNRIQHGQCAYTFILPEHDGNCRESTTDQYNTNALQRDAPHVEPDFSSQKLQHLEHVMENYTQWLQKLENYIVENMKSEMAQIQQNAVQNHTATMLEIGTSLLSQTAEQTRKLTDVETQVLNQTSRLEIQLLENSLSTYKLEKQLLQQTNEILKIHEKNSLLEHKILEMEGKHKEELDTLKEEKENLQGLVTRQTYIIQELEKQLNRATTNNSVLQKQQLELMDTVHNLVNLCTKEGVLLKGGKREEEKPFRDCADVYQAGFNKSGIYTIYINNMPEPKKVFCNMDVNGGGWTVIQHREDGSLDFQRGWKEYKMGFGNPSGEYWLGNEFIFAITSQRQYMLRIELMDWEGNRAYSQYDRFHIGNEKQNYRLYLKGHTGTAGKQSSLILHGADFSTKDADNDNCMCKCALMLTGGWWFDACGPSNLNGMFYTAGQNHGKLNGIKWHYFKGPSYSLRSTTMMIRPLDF

T2: hAng-2-WT binding to hTie-2-mFc (Homo sapiens, UniProt O15123)
T2 sequence (O15123 19-496): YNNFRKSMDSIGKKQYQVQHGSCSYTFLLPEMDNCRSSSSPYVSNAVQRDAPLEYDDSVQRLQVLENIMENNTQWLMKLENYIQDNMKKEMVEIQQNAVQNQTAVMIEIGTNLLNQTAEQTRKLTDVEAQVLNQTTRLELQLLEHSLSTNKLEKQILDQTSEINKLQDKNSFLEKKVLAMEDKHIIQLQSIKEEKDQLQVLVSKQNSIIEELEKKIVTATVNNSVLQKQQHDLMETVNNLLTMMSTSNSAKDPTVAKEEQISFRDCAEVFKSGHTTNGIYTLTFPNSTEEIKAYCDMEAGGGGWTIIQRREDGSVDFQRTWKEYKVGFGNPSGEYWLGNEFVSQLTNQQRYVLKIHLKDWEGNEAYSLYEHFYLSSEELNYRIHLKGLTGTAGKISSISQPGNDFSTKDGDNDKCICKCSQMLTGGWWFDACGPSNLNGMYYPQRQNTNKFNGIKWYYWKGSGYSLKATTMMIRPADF


Legend:
[1] = system: Tie-2 phosphorylation (Ang-2-mediated) in HUVECs; assay: Inhibition of Ang-2-mediated Tie-2 phosphorylation in FOXO1-adenovirus infected HUVECs; type: cell-based, human; details: antibody 0.5 μg/ml
Experimental: Further, the inventors have shown that infection of HUVECs with an adenovirus encoding FOXO1 results in expression and secretion of Ang-2, followed by activation of Tie-2 phosphorylation (Daly et al. 2006 PNAS 103:15491).
Anti-Ang-2 antibodies were tested for their ability to inhibit Tie-2 phosphorylation. Briefly, 7×10^5 HUVECs (Vec Technologies, Rensselaer, N.Y.) were plated in 6 cm cell culture dishes in 3.5 ml of MCDB131 Complete medium (Vec Technologies, Rensselaer, N.Y.). The following day, the cells were washed with Opti-MEM (Invitrogen Corp., Carlsbad, Calif.) and fed with 2 ml of Opti-MEM. […] Cells were then washed with MCDB131 and fed with 2 ml of MCDB131 containing anti-Ang-2 antibodies at a concentration of 0.5 μg/ml. At twenty hours post infection, cells were lysed and subjected to Tie-2 immunoprecipitation as described by Daly et al., Proc. Natl. Acad. Sci. USA 103:15491-15496 (2006). Immunoglobulin was collected on protein A/G beads (Santa Cruz Biotechnology, Santa Cruz, Calif.) for one hour. Beads were washed with cold lysis buffer and resuspended in SDS sample buffer for analysis by western blot with antibodies specific for phosphotyrosine (Millipore, Billerica, Mass.) or Tie-2. Signals were detected using HRP-conjugated secondary antibodies and ECL reagents (GE Healthcare, Piscataway, N.J.). X-Ray films were scanned and the phospho-Tie-2 and Tie-2 signals were quantified using ImageJ software. The phospho-Tie-2/Tie-2 ratios were used to determine the % inhibition for each anti-Ang-2 antibody (i.e. Percent inhibition=Reduction in phospho-Tie-2/Tie-2 as compared to control).

[2] = system: retinal superficial vasculature; assay: Retinal vascularization in wild-type mice; type: in vivo; details: 12.5 mg/kg subcutaneous at P2, retina at P5
Experimental: (§1) In one set of experiments wild-type mice were used. In another set, mice expressing a human Ang-2 in place of the wild-type mouse Ang-2 (designated “hu-Ang-2 mice”) were used. The mice at two days of age (P2) were injected subcutaneously with either control Fc or with selected anti-Ang-2 antibodies at a dose of 12.5 mg/kg. Three days later (at P5), pups were euthanized, and eyeballs were enucleated and fixed in 4% PFA for 30 minutes. Retinas were dissected, stained with Griffonia simplicifolia lectin-1 for 3 hours or overnight at 4° C. to visualize the vasculature, and flat-mounted on microscope slides. Images were taken using a Nikon Eclipse 80i microscope camera and analyzed using Adobe Photoshop CS3, Fovea 4.0, and Scion 1.63 software.
(§2) Areas of the retina covered with superficial vasculature were measured and used as a readout of antibody activity. The reduction in the size of the vascular areas in mice treated with antibody compared to Fc-treated controls is presented in Table 34. The percent reduction in vascular area reflects the anti-angiogenic potency of the antibody. (N/D=not determined)

[3] = system: retinal superficial vasculature; assay: Retinal vascularization in hu-Ang-2 mice; type: in vivo; details: 12.5 mg/kg subcutaneous at P2, retina at P5
Experimental: as §1, §2

[4] = molecular target: T1, hAng-1-WT binding to hTie-2-mFc; assay: Biosensor SPR blocking of hAng-1-WT binding to hTie-2-mFc-ecto surface; type: biochemical; details: 10 nM hAng-1-WT
Experimental: In an effort to further assess the ability of selected anti-hAng-2 antibodies to block the binding of Ang-1 to Tie-2, a biosensor surface plasmon resonance experiment was conducted. In this experiment, a human Tie-2 full-length extracellular domain construct (hTie-2-mFc-ecto) was amine-coupled on a BIACORE™ chip to create a receptor coated surface. Selected anti-hAng-2 antibodies and control constructs, at 1 μM (100-fold excess over antigen), were premixed with 10 nM of hAng-1-WT, followed by 60 minutes incubation at 25° C. to allow antibody-antigen binding to reach equilibrium to form equilibrated solutions. The equilibrated solutions were injected over the receptor surfaces at 5 μL/min for 5 minutes at 25° C. Changes in resonance units (RU) due to the binding of the hAng-1-WT to hTie-2-mFc were determined. An irrelevant peptibody construct with no binding to hAng-1 was included in this experiment to establish the 0% blocking baseline, and a human Tie-2-mFc construct was used as a positive control for blocking. The amount of Ang-1 bound to Tie-2 following antibody preincubation, expressed as a percentage of the amount of Ang-1 bound to Tie-2 following negative control preincubation, is shown in Table 20. (A greater amount of Ang-1 binding to Tie-2 signifies a lower degree of antibody blocking).
(§3) The foregoing experiment was repeated using different amounts of Ang-2 blockers and controls. In particular, a human Tie-2 full-length extracellular domain construct (hTie-2-mFc-ecto) was amine-coupled on a BIACORE™ chip to create a receptor-coated surface. Selected anti-hAng-2 antibodies and control constructs (50 or 150 nM) were mixed with hAng-2-WT (25 nM) followed by 60 minutes incubation at 25° C. to allow antibody-antigen binding to reach equilibrium. The equilibrated solutions were injected over the receptor surfaces at 10 μL/min for 5 minutes at 25° C. To evaluate the ability of the selected anti-hAng-2 antibodies to block Ang-1-WT binding to hTie-2, a similar procedure was followed except the antibodies were tested at three concentrations (50, 100 or 1000 nM) and incubated with 10 nM of hAng-1-WT. Changes in resonance units (RU) due to the binding of the Ang-2-WT or hAng-1-WT to hTie-2-mFc were determined. An irrelevant antibody with no binding to either angiopoietin was included in these experiments to establish the 0% blocking baseline, and a human Tie-2-mFc construct was used as a positive control for blocking. Results are summarized in Tables 21 (hAng-1 applied to a hTie-2 surface) and 22 (hAng-2 applied to a hTie-2 surface).

[5] = molecular target: T2, hAng-2-WT binding to hTie-2-mFc; assay: Biosensor SPR blocking of hAng-2-WT binding to hTie-2-mFc-ecto surface; type: biochemical; details: 25 nM hAng-2-WT
Experimental: as §3

[6] = system: PC3 (Human Prostate Cancer Cell Line) tumors; assay: PC3 mouse tumor model; type: in vivo, NCr nude mice; details: PC3, 10 mg/kg intraperitoneal twice per week
Experimental: Briefly, 5×10^6 PC3 cells in 100 μl of growth factor-reduced Matrigel (BD Biosciences) were injected subcutaneously into the flanks of 6-8 week old male NCr nude mice (Taconic, Hudson, N.Y.). After tumor volumes reached an average of about 200 mm^3, mice were randomized into groups for treatment. […] Tumor volumes were measured twice per week over the course of the experiment and tumor weights were measured upon excision of tumors at the conclusion of the experiment. Averages (mean+/−standard deviation) of tumor weight and growth were calculated for each treatment group. Percent decrease of tumor weight and growth were calculated from comparison to Fc protein measurements.

Row | Molecule | Inhibition of Tie-2 phosphorylation [1] | Inhibition of Tie-2 phosphorylation (in words) [1] | % Reduction in Vascular Area Relative to Fc Control, Wild-Type Mice [2] [%] | % Reduction in Vascular Area Relative to Fc Control, hAng-2 Mice [3] [%] | Percent of Neg. Ctrl Binding (hAng-1 WT) ([4]; 50 nM antibody or control) [%] | Specific Bound RU (hAng-1 WT) ([4]; 50 nM antibody or control) [RU] | Percent of Neg. Ctrl Binding (hAng-1 WT) ([4]; 100 nM antibody or control) [%] | Specific Bound RU (hAng-1 WT) ([4]; 100 nM antibody or control) [RU] | Percent of Neg. Ctrl Binding (hAng-1 WT) ([4]; 1000 nM antibody or control) [%] | Specific Bound RU (hAng-1 WT) ([4]; 1000 nM antibody or control) [RU] | Percent of Neg. Ctrl Binding (hAng-2 WT) ([5]; 50 nM antibody or control) [%] | Specific Bound RU (hAng-2 WT) ([5]; 50 nM antibody or control) [RU] | Percent of Neg. Ctrl Binding (hAng-2 WT) ([5]; 150 nM antibody or control) [%] | Specific Bound RU (hAng-2 WT) ([5]; 150 nM antibody or control) [RU] | Avg Tumor Weight ([6]; approximately three weeks, mean ± SD) [g] | Avg Tumor Growth ([6]; mean ± SD) [mm^3] | % Decrease in Tumor Growth ([6]; vs Fc protein) [%] | % Decrease in Tumor Weight ([6]; vs Fc protein) [%]
1 | H1H690P: anti-Ang-2 antibody, HCVR/LCVR SEQ ID NOs 42/44 (antibody, V domains shown) VH: EVQLVESGGGLVQPGESLRLSCAASGFTFSSYAMSWVRQGPGKGLEWVSSITGSGDTTYYADSVKGRFTISRDNSKNTLYLHMNSLRAEDTAVYYCAKDFLDYSTYLAFDLWGQGTMVTVSS VL: EIVLTQSPATLSLSPGERATLSCRASQSVSSYLTWYQQKPGQAPRLLSYDASNRATGIPARFSGSGSGTDFTLTISSLEPEDFAVYYCQQRSNWPLTFGGGTKVEIK | +++ (75-100%) | Especially robust inhibition | 30.7 | 41.5 |  |  |  |  |  |  |  |  |  |  |  |  |  | 
2 | hTie-2-mFc: chimeric construct consisting of human Tie-2 conjugated to mouse IgG; positive control for blocking (protein) MDSLASLVLCGVSLLLSGTVEGAMDLILINSLPLVSDAETSLTCIASGWRPHEPITIGRDFEALMNQHQDPLEVTQDVTREWAKKVVWKREKASKINGAYFCEGRVRGEAIRIRTMKMRQQASFLPATLTMTVDKGDNVNISFKKVLIKEEDAVIYKNGSFIHSVPRHEVPDILEVHLPHAQPQDAGVYSARYIGGNLFTSAFTRLIVRRCEAQKWGPECNHLCTACMNNGVCHEDTGECICPPGFMGRTCEKACELHTFGRTCKERCSGQEGCKSYVFCLPDPYGCSCATGWKGLQCNEACHPGFYGPDCKLRCSCNNGEMCDRFQGCLCSPGWQGLQCEREGIPRMTPKIVDLPDHIEVNSGKFNPICKASGWPLPTNEEMTLVKPDGTVLHPKDFNHTDHFSVAIFTIHRILPPDSGVWVCSVNTVAGMVEKPFNISVKVLPKPLNAPNVIDTGHNFAVINISSEPYFGDGPIKSKKLLYKPVNHYEAWQHIQVTNEIVTLNYLEPRTEYELCVQLVRRGEGGEGHPGPVRRFTTASIGLPPPRGLNLLPKSQTTLNLTWQPIFPSSEDDFYVEVERRSVQKSDQQNIKVPGNLTSVLLNNLHPREQYVVRARVNTKAQGEWSEDLTAWTLSDILPPQPENIKISNITHSSAVISWTILDGYSISSITIRYKVQGKNEDQHVDVKIKNATIIQYQLKGLEPETAYQVDIFAENNIGSSNPAFSHELVTLPESQAPADLGGGKGPGEPRGPTIKPCPPCKCPAPNLLGGPSVFIFPPKIKDVLMISLSPIVTCVVVDVSEDDPDVQISWFVNNVEVHTAQTQTHREDYNSTLRVVSALPIQHQDWMSGKEFKCKVNNKDLPAPIERTISKPKGSVRAPQVYVLPPPEEEMTKKQVTLTCMVTDFMPEDIYVEWTNNGKTELNYKNTEPVLDSDGSYFMYSKLRVEKKNWVERNSYSCSVVHEGLHNHHTTKSFSRTPGK |  |  |  |  | 22 | 70 | 13 | 39 | 0 | −47 | 35 | 97 | 30 | 82 |  |  |  | 
3 | H1H724N: anti-Ang-2 antibody (724N) cloned onto human IgG1 (antibody, V domains shown) VH: QVQLVESGGGVVQPGRSLRLSCAASGFTLSNYGMHWVRQAPGKGLEWVAVIWHDGSNTYYADSVKGRFTISRDNSKNTLYLQMNSLRAEDTAVYYCTREGLDFWSGYYPNWFDPWGQGTLVTVSS VL: DIQMTQSPSSLSASVGDRVTITCRASQGIRNDLGWYQQKPGKAPKRLIYAASNLQGGVPSRFSGSGSGTEFTLTISSLQPEDFAAYYCLQHNIYPLTFGGGTKVEIK |  |  | 32.2 | 33.2 |  |  |  |  |  |  |  |  |  |  | 0.55 ± 0.07 | 392 ± 169 | 23 | 17
